The values that follow come from patent US20140274782A1, “AFFINITY REAGENTS AND METHODS FOR DETECTION, PURIFICATION, AND PROTEOMIC ANALYSIS OF METHYLATED PROTEINS” (The Board of Trustees of the Leland Stanford Junior …, priority 2013, published 2014).

One assay concerns 3×MBT domain of L3MBTL1. Nature of the assay: Triple SILAC pull-down, 3xMBT/3xMBTD355N ratio (cytoplasmic, nuclear and chromatin fractions of 293T cells).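 On all read-outs here: proteins quantified with MaxQuant, requiring at least two unique peptides and quantification in both label directions, normalized to the mean of proteins from a digested loading control.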 It is filed as binding, human. The note with it: SILAC ratio, pull-down 3xMBT vs 3xMBTD355N; for 3xMBT/D355N UNC Heavy: experiment with UNC0638 in heavy SILAC media; for 3xMBT/D355N UNC Light: experiment with UNC0638 in light SILAC media.

The target of the next assay is T1, G9a and GLP (Homo sapiens, UniProt Q96KQ7+Q9H9B1).
T1 sequence (Q96KQ7 2-1210 limits assumed): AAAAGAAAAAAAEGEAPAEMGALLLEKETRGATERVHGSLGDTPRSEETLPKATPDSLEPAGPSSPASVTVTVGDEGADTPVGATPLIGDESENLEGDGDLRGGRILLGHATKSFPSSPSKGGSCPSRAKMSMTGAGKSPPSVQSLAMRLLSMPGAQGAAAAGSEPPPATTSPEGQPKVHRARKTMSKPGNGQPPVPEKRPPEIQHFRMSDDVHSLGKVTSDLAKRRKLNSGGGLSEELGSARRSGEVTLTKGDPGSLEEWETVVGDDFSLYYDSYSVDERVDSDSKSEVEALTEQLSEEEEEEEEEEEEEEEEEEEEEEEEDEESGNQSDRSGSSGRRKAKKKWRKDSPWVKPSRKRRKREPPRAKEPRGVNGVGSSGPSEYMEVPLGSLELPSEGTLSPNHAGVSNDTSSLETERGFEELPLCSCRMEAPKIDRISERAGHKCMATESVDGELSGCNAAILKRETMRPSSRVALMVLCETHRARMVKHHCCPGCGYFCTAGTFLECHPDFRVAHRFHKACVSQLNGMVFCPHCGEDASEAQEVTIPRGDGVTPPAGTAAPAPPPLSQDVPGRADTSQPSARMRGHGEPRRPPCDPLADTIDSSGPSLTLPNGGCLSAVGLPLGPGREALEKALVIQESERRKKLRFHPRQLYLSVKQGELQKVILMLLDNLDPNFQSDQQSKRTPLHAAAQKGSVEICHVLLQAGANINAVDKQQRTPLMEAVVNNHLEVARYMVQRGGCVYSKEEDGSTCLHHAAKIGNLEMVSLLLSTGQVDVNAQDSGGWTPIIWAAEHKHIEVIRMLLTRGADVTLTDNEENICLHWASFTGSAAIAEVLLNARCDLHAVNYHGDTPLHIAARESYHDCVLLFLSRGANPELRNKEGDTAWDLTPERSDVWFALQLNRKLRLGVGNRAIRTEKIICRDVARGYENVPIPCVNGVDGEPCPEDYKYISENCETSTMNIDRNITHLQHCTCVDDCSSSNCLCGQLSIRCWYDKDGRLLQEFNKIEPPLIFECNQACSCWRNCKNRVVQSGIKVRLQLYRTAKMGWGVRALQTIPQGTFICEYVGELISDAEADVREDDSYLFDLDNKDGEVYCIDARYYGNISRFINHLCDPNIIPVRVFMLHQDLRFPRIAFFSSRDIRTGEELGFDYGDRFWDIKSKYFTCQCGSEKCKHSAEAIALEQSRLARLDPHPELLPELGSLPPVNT
T1 sequence (Q9H9B1 2-1298 limits assumed): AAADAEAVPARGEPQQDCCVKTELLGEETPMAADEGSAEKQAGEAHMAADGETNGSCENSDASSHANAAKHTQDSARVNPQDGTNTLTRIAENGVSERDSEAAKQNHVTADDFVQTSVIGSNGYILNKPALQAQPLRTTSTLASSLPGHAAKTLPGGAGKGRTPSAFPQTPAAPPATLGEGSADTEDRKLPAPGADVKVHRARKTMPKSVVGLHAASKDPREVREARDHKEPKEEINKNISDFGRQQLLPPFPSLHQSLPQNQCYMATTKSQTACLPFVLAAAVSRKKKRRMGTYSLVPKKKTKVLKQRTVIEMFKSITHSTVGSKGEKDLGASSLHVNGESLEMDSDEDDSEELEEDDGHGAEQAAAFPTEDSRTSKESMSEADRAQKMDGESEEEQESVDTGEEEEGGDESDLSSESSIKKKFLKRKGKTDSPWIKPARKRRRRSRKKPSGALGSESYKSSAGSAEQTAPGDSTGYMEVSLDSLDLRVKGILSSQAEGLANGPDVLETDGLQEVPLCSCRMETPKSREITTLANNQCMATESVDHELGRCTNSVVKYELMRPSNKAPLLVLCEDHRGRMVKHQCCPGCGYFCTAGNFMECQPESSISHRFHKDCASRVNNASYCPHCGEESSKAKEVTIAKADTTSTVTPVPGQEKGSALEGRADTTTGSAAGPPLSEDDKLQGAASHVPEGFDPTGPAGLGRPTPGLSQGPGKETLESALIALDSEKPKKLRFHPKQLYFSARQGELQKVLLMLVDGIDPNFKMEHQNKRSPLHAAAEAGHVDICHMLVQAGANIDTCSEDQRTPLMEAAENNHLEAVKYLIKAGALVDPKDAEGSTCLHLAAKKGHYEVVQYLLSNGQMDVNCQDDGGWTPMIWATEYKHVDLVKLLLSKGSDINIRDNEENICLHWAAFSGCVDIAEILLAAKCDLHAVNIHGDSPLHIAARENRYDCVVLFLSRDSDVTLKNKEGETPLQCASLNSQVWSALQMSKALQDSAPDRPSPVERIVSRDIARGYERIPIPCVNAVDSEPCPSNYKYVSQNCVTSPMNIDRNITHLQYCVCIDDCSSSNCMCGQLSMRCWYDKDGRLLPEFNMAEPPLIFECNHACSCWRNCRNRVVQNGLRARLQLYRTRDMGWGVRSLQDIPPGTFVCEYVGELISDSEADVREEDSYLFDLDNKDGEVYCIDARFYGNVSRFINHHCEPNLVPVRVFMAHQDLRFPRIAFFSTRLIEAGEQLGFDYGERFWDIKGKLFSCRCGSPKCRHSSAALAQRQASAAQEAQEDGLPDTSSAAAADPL
In words: Triple SILAC pull-down after UNC0638 treatment of 293T cells, DMSO/UNC0638 ratio of protein captured by 3×MBT.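 On all read-outs here: mass spectrometry (Q-Exactive) SILAC quantitation, DMSO/UNC0638 ratio computed after subtracting 3×MBTD355N mutant pull-down background, only proteins with at least twofold 3×MBT over mutant signal considered.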 The note with it: for Relative to UNC0638 UNC Heavy / Relative to UNC0638 UNC Light: SILAC ratio DMSO/UNC0638 of protein pulled down with 3xMBT; for Relative to UNC0638 UNC Heavy: UNC0638 in heavy SILAC media; for Relative to UNC0638 UNC Light: UNC0638 in light SILAC media; for Relative to UNC0638 Average: average of UNC Light and UNC Heavy experiments. Type of assay: cell-based. Details: cells were treated for 24 hours with UNC0638 at 2.5 μM or DMSO vehicle control; endogenous in cells; host or cells: HEK 293T.

Protocol for 3×MBT domain of L3MBTL1: For stable isotope labeling by amino acids in cell culture (SILAC) experiments HEK 293T cells were grown for at least six doublings in DMEM for SILAC supplemented with 10% dialyzed fetal bovine serum (FBS), 230 mg/L L-proline and either 100 mg/L each of L-lysine and L-arginine (“light” medium), D4-L-lysine and ^13C6-L-arginine (“medium” media), or ^13C6^15N2-L-lysine and ^13C6^15N4-L-arginine (Thermo Scientific). Heavy methyl labeling used DMEM without L-Methionine or L-Cysteine supplemented with D3^13C-L-Methionine (Sigma), L-Cysteine (Sigma) and 10% dialyzed FBS.
For UNC0638 treatments cells were treated for 24 hours with UNC0638 at 2.5 μM or DMSO vehicle control. One experiment treated cells in light media with UNC0638, the other treated cells in heavy media. Both experiments included cells in medium media treated with DMSO for negative control pull-down with 3×MBTD355N.
UNC0638 treatment experiments used a Q-Exactive mass spectrometer (ThermoFisher Scientific). A 25 cm HPLC column with 3 μm Reliasil (Orochem) was used to separate peptides over a 4 hour gradient from 0 to 75% acetonitrile. Ions were generated using a custom nanospray source flowing at 250 nL/minute. Mass spectrometry settings were 70,000 MS1 resolution, data dependent selection of up to 20 precursor ions per cycle, dynamic exclusion of 30 seconds and isolation window of 2 m/z. The nuclear fraction from the experiment using UNC0638 on cells in heavy media was additionally analyzed by 2D HPLC-MS/MS as described earlier.
Peptides were identified and quantified using MaxQuant version 1.2.2.5 (Cox and Mann, supra) with the following changes to default settings: mono- and di-methylation of lysine, and oxidation of methionine, and N-terminal acetylation as variable modifications, disabled “I=L”, up to three modifications per peptide, one missed cleavage, maximum charge of 5. Protein and peptide FDR were set to 1%, and proteins were filtered post-hoc for at least two unique peptides. Proteins were excluded from an experiment if they were not quantified in both labeling directions. Because FDR is unreliable for small numbers of peptides the modification site FDR was set to 10% and all methylated peptides were manually verified. […] Quantitative protein data was normalized to the mean value among proteins identified by analyzing 50 ng of digested loading control.
For UNC0638 experiments the treated vs. untreated ratio was determined by subtracting the value from 3×MBTD355N prior to dividing values from the light and heavy channels. Only proteins showing a two-fold signal to background ratio (3×MBT/3×MBTD355N) were evaluated as potential G9a/GLP substrates.

B1: SNX9 (protein, UniProt Q9Y5X1 1-595, looked up)
Sorting nexin-9: MATKARVMYDFAAEPGNNELTVNEGEIITITNPDVGGGWLEGRNIKGERGLVPTDYVEILPSDGKDQFSCGNSVADQAFLDSLSASTAQASSSAASNNHQVGSGNDPWSAWSASKSGNWESSEGWGAQPEGAGAQRNTNTPNNWDTAFGHPQAYQGPATGDDDDWDEDWDGPKSSSYFKDSESADAGGAQRGNSRASSSSMKIPLNKFPGFAKPGTEQYLLAKQLAKPKEKIPIIVGDYGPMWVYPTSTFDCVVADPRKGSKMYGLKSYIEYQLTPTNTNRSVNHRYKHFDWLYERLLVKFGSAIPIPSLPDKQVTGRFEEEFIKMRMERLQAWMTRMCRHPVISESEVFQQFLNFRDEKEWKTGKRKAERDELAGVMIFSTMEPEAPDLDLVEIEQKCEAVGKFTKAMDDGVKELLTVGQEHWKRCTGPLPKEYQKIGKALQSLATVFSSSGYQGETDLNDAITEAGKTYEEIASLVAEQPKKDLHFLMECNHEYKGFLGCFPDIIGTHKGAIEKVKESDKLVATSKITLQDKQNMVKRVSIMSYALQAEMNHFHSNRIYDYNSVIRLYLEQQVQFYETIAEKLRQALSRFPVM
Consider B1, for which, in the assay with 3×MBT domain of L3MBTL1, the “3xMBT/D355N UNC Heavy” value was found to be 2.60 log base 2 and the “3xMBT/D355N UNC Light” value is on record as 2.47 log base 2. In the assay with G9a and GLP, the “Relative to UNC0638 UNC Heavy” value is listed as 0.31 log base 2, the “Relative to UNC0638 UNC Light” value amounted to 0.04 log base 2 and the “Relative to UNC0638 Average” value is 0.18 log base 2.

B2: HNRNPA2B1 (protein, UniProt P22626 1-353, looked up)
Heterogeneous nuclear …: MEKTLETVPLERKKREKEQFRKLFIGGLSFETTEESLRNYYEQWGKLTDCVVMRDPASKRSRGFGFVTFSSMAEVDAAMAARPHSIDGRVVEPKRAVAREESGKPGAHVTVKKLFVGGIKEDTEEHHLRDYFEEYGKIDTIEIITDRQSGKKRGFGFVTFDDHDPVDKIVLQKYHTINGHNAEVRKALSRQEMQEVQSSRSGRGGNFGFGDSRGGGGNFGPGPGSNFRGGSDGYGSGRGFGDGYNGYGGGPGGGNFGGSPGYGGGRGGYGGGGPGYGNQGGGYGGGYDNYGGGNYGSGNYNDFGNYNQQPSNYGPMKSGNFGGSRNMGGPYGGGNYGPGGSGGSGGYGGRSRY
As to B2, in the assay on 3×MBT domain of L3MBTL1, the “3xMBT/D355N UNC Heavy” value was determined as 3.43 log base 2 and the “3xMBT/D355N UNC Light” value amounted to 3.97 log base 2. Also, in the assay with G9a and GLP, the “Relative to UNC0638 UNC Heavy” value stood at 0.07 log base 2, the “Relative to UNC0638 UNC Light” value is given as 0.28 log base 2 and the “Relative to UNC0638 Average” value is recorded as 0.18 log base 2.

B3: HNRNPA3 (protein, UniProt P51991 1-378, looked up)
Heterogeneous nuclear …: MEVKPPPGRPQPDSGRRRRRRGEEGHDPKEPEQLRKLFIGGLSFETTDDSLREHFEKWGTLTDCVVMRDPQTKRSRGFGFVTYSCVEEVDAAMCARPHKVDGRVVEPKRAVSREDSVKPGAHLTVKKIFVGGIKEDTEEYNLRDYFEKYGKIETIEVMEDRQSGKKRGFAFVTFDDHDTVDKIVVQKYHTINGHNCEVKKALSKQEMQSAGSQRGRGGGSGNFMGRGGNFGGGGGNFGRGGNFGGRGGYGGGGGGSRGSYGGGDGGYNGFGGDGGNYGGGPGYSSRGGYGGGGPGYGNQGGGYGGGGGYDGYNEGGNFGGGNYGGGGNYNDFGNYSGQQQSNYGPMKGGSFGGRSSGSPYGGGYGSGGGSGGYGSRRF
Turning to B3, in the assay with 3×MBT domain of L3MBTL1, the “3xMBT/D355N UNC Heavy” value is recorded as 2.96 log base 2 and the “3xMBT/D355N UNC Light” value turned out to be 3.79 log base 2. Further, in the assay with G9a and GLP, the “Relative to UNC0638 UNC Heavy” value is on record as 0.20 log base 2, the “Relative to UNC0638 UNC Light” value worked out at 0.16 log base 2 and the “Relative to UNC0638 Average” value is recorded as 0.18 log base 2.

B4: MCM3 (protein, UniProt P25205 2-808, looked up)
DNA replication licensing …: AGTVVLDDVELREAQRDYLDFLDDEEDQGIYQSKVRELISDNQYRLIVNVNDLRRKNEKRANRLLNNAFEELVAFQRALKDFVASIDATYAKQYEEFYVGLEGSFGSKHVSPRTLTSCFLSCVVCVEGIVTKCSLVRPKVVRSVHYCPATKKTIERRYSDLTTLVAFPSSSVYPTKDEENNPLETEYGLSVYKDHQTITIQEMPEKAPAGQLPRSVDVILDDDLVDKAKPGDRVQVVGTYRCLPGKKGGYTSGTFRTVLIACNVKQMSKDAQPSFSAEDIAKIKKFSKTRSKDIFDQLAKSLAPSIHGHDYVKKAILCLLLGGVERDLENGSHIRGDINILLIGDPSVAKSQLLRYVLCTAPRAIPTTGRGSSGVGLTAAVTTDQETGERRLEAGAMVLADRGVVCIDEFDKMSDMDRTAIHEVMEQGRVTIAKAGIHARLNARCSVLAAANPVYGRYDQYKTPMENIGLQDSLLSRFDLLFIMLDQMDPEQDREISDHVLRMHRYRAPGEQDGDAMPLGSAVDILATDDPNFSQEDQQDTQIYEKHDNLLHGTKKKKEKMVSAAFMKKYIHVAKIIKPVLTQESATYIAEEYSRLRSQDSMSSDTARTSPVTARTLETLIRLATAHAKARMSKTVDLQDAEEAVELVQYAYFKKVLEKEKKRKKRSEDESETEDEEEKSQEDQEQKRKRRKTRQPDAKDGDSYDPYDFSDTEEEMPQVHTPKTADSQETKESQKVELSESRLKAFKVALLDVFREAHAQSIGMNRLTESINRDSEEPFSSVEIQAALSKMQDDNQVMVSEGIIFLI
As to B4, in the assay with 3×MBT domain of L3MBTL1, the “3xMBT/D355N UNC Heavy” value amounted to 2.59 log base 2 and the “3xMBT/D355N UNC Light” value worked out at 2.49 log base 2. Besides, in the assay with G9a and GLP, the “Relative to UNC0638 UNC Heavy” value amounted to 0.28 log base 2, the “Relative to UNC0638 UNC Light” value is recorded as 0.09 log base 2 and the “Relative to UNC0638 Average” value is given as 0.18 log base 2.

B5: C20orf43 (protein, UniProt Q9BY42 1-306, looked up)
Replication termination …: MGCDGGTIPKRHELVKGPKKVEKVDKDAELVAQWNYCTLSQEILRRPIVACELGRLYNKDAVIEFLLDKSAEKALGKAASHIKSIKNVTELKLSDNPAWEGDKGNTKGDKHDDLQRARFICPVVGLEMNGRHRFCFLRCCGCVFSERALKEIKAEVCHTCGAAFQEDDVIMLNGTKEDVDVLKTRMEERRLRAKLEKKTKKPKAAESVSKPDVSEEAPGPSKVKTGKPEEASLDSREKKTNLAPKSTAMNESSSGKAGKPPCGATKRSIADSEESEAYKSLFTTHSSAKRSKEESAHWVTHTSYCF
Take B5: in the assay with 3×MBT domain of L3MBTL1, the “3xMBT/D355N UNC Heavy” value is 1.26 log base 2 and the “3xMBT/D355N UNC Light” value is reported as 0.71 log base 2. For the same molecule, in the assay with G9a and GLP, the “Relative to UNC0638 UNC Heavy” value is on record as 2.48 log base 2, the “Relative to UNC0638 UNC Light” value was −0.46 log base 2 and the “Relative to UNC0638 Average” value is reported as 1.01 log base 2.
